Test results as given in US20200181278A1 (MITSUBISHI TANABE PHARMA, published 2020).
Each block holds one binder with its values, some of them ahead of it.

Target: T1, mouse CD138 His (mouse, UniProt P18828 23-255, limits assumed)
T1 construct: also called mCD138; not shown: His tag
T1 sequence: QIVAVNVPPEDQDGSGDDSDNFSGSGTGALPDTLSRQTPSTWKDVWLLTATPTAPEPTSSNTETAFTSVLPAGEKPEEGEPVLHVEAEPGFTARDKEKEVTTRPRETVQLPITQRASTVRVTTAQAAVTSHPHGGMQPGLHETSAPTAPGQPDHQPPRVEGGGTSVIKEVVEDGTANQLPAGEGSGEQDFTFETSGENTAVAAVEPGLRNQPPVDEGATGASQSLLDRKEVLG
Test: SPR, mouse CD138 His immobilised, antibody as analyte
Experimental: Murine IgGs were purified from the hybridoma supernatants and the IgGs were subject to SPR (surface plasmon resonance) for kinetic binding measurements. […] […] KDs were measured using bivalent analyte fit.

binding result: no binding
B1: F12P7G11 (antibody, V domains shown)
VH: QVQLQQSGAELARPGASVKLSCKASGYTFSSHWMQWVKQRPGQGLEWIGAIYPGDGDTRFTQKFKGKATLTADKSSNTAYMQLSSLASEDSAVYYCARGIYYDRSRAMDYWGQGTSVTVSS
VL: QIVLSQSPAILSASPGEKVTMTCRASSSVNYMHWYQQKPGSSPKHWIYATSYLASGVPARFSGSGSGTSYSLTISRVEAEDAATYYCQQWSSDPLTFGAGTKLELKR
notes: Murine IgG purified from hybridoma supernatant

binding result: no binding
B2: F11AP11E5 (antibody, V domains shown)
VH: QVQLQQSGAELVKPGASVKLSCKASGYTFTNYYMYWVKQRPGQGLEWIGEINPGNGGTNFNEKFKNKATLTVDKSSSTAYMQLSSLTSEDSAVYYCTTRFAYWGQGTLVIVSA
VL: DVVMTQTPLSLSVTIGQPASISCKSGQSLLYSNGKTYLTWLQQRPGQAPKLLMYQVSKLDPGIPDRFSGSGSETDFTLKISRVEAEDLGVYYCLQNTYYPHTFGAGTKLELKR
notes: as for B1
